The text below walks through data of US20230374127A1 (LG CHEM, published 2023).

The target in this experiment is T1, human LILRB1 protein (LILRB1-His, RnD systems Cat. No. 8989-T2) (human, UniProt Q8NHL6 24-458, limits assumed).
T1 construct: Bought protein; also called LILRB1 antigen; the antigen, LILRB1; not shown: His tag
The experiment can be described thus: SPR, Biacore T200; antibody captured by anti-human IgG (Fc), LILRB1-His injected 25-400 nM. On the procedure:
The binding affinities of the 19 antibodies, which were selected in Example 3, to the antigen, LILRB1, were measured using Biacore T200 (GE healthcare). An anti-human IgG (Fc) antibody (GE healthcare, Cat. No. BR-1008-39, final concentration of 25 μg/mL) was flowed at the flow rate of 5 μL/min for 360 seconds to be immobilized at 5000-7000 RU on Series S Sensor Chip CM5 (GE healthcare, Cat. No. BR-1005-30) using Amine Coupling Kit (GE healthcare, Cat. No. BR-1000-50).

T1 sequence (Q8NHL6 24-458 limits assumed): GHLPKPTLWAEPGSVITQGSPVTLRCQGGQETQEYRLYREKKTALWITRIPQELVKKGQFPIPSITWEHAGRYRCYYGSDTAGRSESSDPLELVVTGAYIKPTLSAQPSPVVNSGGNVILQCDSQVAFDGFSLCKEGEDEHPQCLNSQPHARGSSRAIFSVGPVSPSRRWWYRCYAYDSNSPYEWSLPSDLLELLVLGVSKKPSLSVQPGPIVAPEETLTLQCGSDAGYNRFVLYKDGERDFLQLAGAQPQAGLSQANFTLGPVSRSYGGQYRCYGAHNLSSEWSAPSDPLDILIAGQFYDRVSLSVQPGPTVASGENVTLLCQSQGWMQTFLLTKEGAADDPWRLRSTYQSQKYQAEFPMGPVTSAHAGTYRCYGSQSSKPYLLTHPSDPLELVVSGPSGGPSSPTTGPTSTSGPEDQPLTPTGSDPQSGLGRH

B1: anti-LILRB1 antibody No. 10 (antibody, human IgG4 S228P, kappa, F234A L235A, V domains shown)
VH: QVQLVQSGAEVKKPGSSVKVSCKASGGTFSSHYMHWVRQAPGQGLEWMGWISPYLGSTNYAQKFQGRVTITADESTSTAYMELSSLRSEDTAVYYCARDETGSTYGAFDYWGQGTLVTVSS
VL: DIQMTQSPSSLSASVGDRVTITCRASQSISNYLNWYQQKPGKAPKLLIYAASNLQSGVPSRFSGSGSGTDFTLTISSLQPEDFATYYCQQSYSFPFTFGQGTKVEIKR
notes: Human IgG4 / kappa, expressed in ExpiCHO-S cells; also called clone 10
As usually defined, the Kd is the free concentration of one partner at which half of the binding sites on the other are occupied at equilibrium, for simple one-to-one binding. Higher therefore signals weaker binding. As a reminder, the koff is the first-order rate constant of dissociation. For orientation: kon means the rate constant with which the complex forms. The low end stands for slow association, the high end for fast association. Consider B1, for which the Kd is 24.1 nM, the koff came out at 0.000298 s⁻¹ and the kon turned out to be 12300 M⁻¹ s⁻¹.
